Reference: PMC2756588

T1: Bud14, P27637
T1 sequence (P27637 247-328, looked up): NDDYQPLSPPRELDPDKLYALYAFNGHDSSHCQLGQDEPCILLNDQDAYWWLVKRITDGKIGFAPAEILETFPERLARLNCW

T2: Boi1, P38041
T2 sequence (P38041 1-86, looked up): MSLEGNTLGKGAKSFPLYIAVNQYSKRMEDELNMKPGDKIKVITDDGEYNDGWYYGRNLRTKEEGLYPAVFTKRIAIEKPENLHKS

T3: Fus1, P11710
T3 sequence (P11710 432-512, looked up): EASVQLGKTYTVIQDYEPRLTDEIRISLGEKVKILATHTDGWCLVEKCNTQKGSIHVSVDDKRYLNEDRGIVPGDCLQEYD

T4: Sla1-2, P32790
T4 sequence (P32790 60-140, looked up): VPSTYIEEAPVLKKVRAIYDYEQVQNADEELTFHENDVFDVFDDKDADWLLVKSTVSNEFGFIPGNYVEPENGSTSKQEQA

T5: Cyk3, Q07533
T5 sequence (Q07533 1-83, looked up): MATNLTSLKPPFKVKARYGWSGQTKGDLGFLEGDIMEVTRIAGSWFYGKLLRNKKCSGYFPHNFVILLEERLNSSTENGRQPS

T6: Hse1, P38753
T6 sequence (P38753 208-285, looked up): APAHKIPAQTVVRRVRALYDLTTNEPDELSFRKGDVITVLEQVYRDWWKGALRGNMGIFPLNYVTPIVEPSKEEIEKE

T7: Bzz1-1, P38822
T7 sequence (P38822 478-572, looked up): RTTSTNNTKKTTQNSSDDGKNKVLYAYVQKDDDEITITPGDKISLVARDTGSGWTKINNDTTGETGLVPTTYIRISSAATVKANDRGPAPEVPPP

T8: Sla1-3, P32790
T8 sequence (P32790 344-424, looked up): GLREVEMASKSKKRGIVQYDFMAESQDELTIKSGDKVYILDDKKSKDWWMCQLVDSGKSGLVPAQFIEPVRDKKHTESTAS

T9: Nbp2, Q12163
T9 sequence (Q12163 103-180, looked up): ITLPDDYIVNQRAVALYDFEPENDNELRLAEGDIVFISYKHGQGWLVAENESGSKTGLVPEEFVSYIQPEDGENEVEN

T10: Cdc25, P04821
T10 sequence (P04821 50-136, looked up): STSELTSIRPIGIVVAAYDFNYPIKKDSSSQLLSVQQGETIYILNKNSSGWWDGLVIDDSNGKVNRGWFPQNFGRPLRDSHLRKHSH

T11: Lsb3, P43603
T11 sequence (P43603 385-451, looked up): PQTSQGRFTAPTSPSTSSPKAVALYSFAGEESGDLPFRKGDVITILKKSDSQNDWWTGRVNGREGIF

T12: Pex13, P80667
T12 sequence (P80667 295-386, looked up): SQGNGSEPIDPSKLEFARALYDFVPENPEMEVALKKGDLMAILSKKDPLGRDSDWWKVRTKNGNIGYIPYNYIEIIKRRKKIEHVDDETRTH

T13: Hof1, Q05080
T13 sequence (Q05080 590-669, looked up): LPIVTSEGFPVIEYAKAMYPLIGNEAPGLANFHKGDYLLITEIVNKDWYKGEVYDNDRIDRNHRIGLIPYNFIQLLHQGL

T14: Abp1, P15891
T14 sequence (P15891 535-592, looked up): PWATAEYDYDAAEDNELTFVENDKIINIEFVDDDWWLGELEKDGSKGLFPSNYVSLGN

T15: Lsb4, P32793
T15 sequence (P32793 402-468, looked up): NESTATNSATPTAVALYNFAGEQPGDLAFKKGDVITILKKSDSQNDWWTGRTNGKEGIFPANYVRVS

T16: Boi2, P39969
T16 sequence (P39969 32-116, looked up): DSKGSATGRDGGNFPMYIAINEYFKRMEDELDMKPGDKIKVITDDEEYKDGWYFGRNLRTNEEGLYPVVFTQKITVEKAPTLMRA

T17: Lsb1, P53281
T17 sequence (P53281 45-122, looked up): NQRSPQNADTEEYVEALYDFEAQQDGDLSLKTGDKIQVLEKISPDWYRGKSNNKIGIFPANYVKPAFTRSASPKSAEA

T18: Myo5, Q04439
T18 sequence (Q04439 1072-1160, looked up): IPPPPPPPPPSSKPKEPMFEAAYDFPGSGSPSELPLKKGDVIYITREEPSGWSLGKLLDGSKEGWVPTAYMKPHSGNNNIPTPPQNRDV

T19: Bzz1-2, P38822
T19 sequence (P38822 568-633, looked up): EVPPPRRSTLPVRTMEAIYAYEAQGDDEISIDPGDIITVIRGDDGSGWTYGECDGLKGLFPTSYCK

T20: Bbc1, P47068
T20 sequence (P47068 1-78, looked up): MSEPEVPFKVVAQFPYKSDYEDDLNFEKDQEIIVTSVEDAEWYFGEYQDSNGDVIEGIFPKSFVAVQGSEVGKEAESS

T21: Pin3, Q06449
T21 sequence (Q06449 53-122, looked up): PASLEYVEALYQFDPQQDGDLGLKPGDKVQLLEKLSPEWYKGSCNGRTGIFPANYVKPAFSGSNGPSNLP

B1: unnamed (peptide)
chain: ANNQGPPNLPARDKS
B2: unnamed (peptide)
chain: VAPPPLPNRQLPNLD
B3: unnamed (peptide)
chain: MAMRPIPPLPTESEY

molecular target: T1, Bud14, P27637; assay: SPOT array; details: median of control spots 956

| Binder | SPOT intensity |
| --- | --- |
| B1 | 0 |
| B2 | 0 |
| B3 | 0 |

molecular target: T2, Boi1, P38041; assay: SPOT array; details: median of control spots 1162

| Binder | SPOT intensity |
| --- | --- |
| B1 | 4 |
| B2 | 0 |
| B3 | 0 |

molecular target: GST; assay: SPOT array; details: median of control spots 978

| Binder | SPOT intensity |
| --- | --- |
| B1 | 1 |
| B2 | 0 |
| B3 | 0 |

molecular target: Myo3, P36006; assay: SPOT array; details: median of control spots 468

| Binder | SPOT intensity |
| --- | --- |
| B1 | 0 |
| B2 | 112 |
| B3 | 7 |

molecular target: T3, Fus1, P11710; assay: SPOT array; details: median of control spots 1200

| Binder | SPOT intensity |
| --- | --- |
| B1 | 0 |
| B2 | 0 |
| B3 | 0 |

molecular target: Rvs167, P39743; assay: SPOT array; details: median of control spots 2707
Sequence (P39743 419-482): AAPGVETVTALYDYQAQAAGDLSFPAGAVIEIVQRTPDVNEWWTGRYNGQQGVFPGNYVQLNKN

| Binder | SPOT intensity |
| --- | --- |
| B1 | 3320 |
| B2 | 5720 |
| B3 | 1460 |

molecular target: Bem1-2, P29366; assay: SPOT array; details: median of control spots 4347
Sequence (P29366 139-227): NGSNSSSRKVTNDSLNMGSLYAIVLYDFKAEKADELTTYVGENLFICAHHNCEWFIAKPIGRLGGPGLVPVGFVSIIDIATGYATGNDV

| Binder | SPOT intensity |
| --- | --- |
| B1 | 0 |
| B2 | 0 |
| B3 | 0 |

molecular target: T4, Sla1-2, P32790; assay: SPOT array; details: median of control spots 712

| Binder | SPOT intensity |
| --- | --- |
| B1 | 1 |
| B2 | 0 |
| B3 | 0 |

molecular target: T5, Cyk3, Q07533; assay: SPOT array; details: median of control spots 1451

| Binder | SPOT intensity |
| --- | --- |
| B1 | 0 |
| B2 | 2 |
| B3 | 0 |

molecular target: T6, Hse1, P38753; assay: SPOT array; details: median of control spots 1727

| Binder | SPOT intensity |
| --- | --- |
| B1 | 0 |
| B2 | 0 |
| B3 | 0 |

molecular target: T7, Bzz1-1, P38822; assay: SPOT array; details: median of control spots 4446

| Binder | SPOT intensity |
| --- | --- |
| B1 | 2 |
| B2 | 2 |
| B3 | 0 |

molecular target: Bem1-1, P29366; assay: SPOT array; details: median of control spots 4282
Sequence (P29366 55-141): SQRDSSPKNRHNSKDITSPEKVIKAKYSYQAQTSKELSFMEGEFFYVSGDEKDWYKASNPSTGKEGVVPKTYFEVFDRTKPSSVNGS

| Binder | SPOT intensity |
| --- | --- |
| B1 | 0 |
| B2 | 2 |
| B3 | 0 |

molecular target: T8, Sla1-3, P32790; assay: SPOT array; details: median of control spots 5475

| Binder | SPOT intensity |
| --- | --- |
| B1 | 0 |
| B2 | 0 |
| B3 | 0 |

molecular target: T9, Nbp2, Q12163; assay: SPOT array; details: median of control spots 357

| Binder | SPOT intensity |
| --- | --- |
| B1 | 0 |
| B2 | 0 |
| B3 | 0 |

molecular target: T10, Cdc25, P04821; assay: SPOT array; details: median of control spots 969

| Binder | SPOT intensity |
| --- | --- |
| B1 | 0 |
| B2 | 0 |
| B3 | 0 |

molecular target: T11, Lsb3, P43603; assay: SPOT array; details: median of control spots 406

| Binder | SPOT intensity |
| --- | --- |
| B1 | 478 |
| B2 | 743 |
| B3 | 131 |

molecular target: T12, Pex13, P80667; assay: SPOT array; details: median of control spots 1341

| Binder | SPOT intensity |
| --- | --- |
| B1 | 229 |
| B2 | 563 |
| B3 | 235 |

molecular target: T13, Hof1, Q05080; assay: SPOT array; details: median of control spots 4086

| Binder | SPOT intensity |
| --- | --- |
| B1 | 0 |
| B2 | 1330 |
| B3 | 1560 |

molecular target: Sho1, P40073; assay: SPOT array; details: median of control spots 1148
Sequence (P40073 287-367): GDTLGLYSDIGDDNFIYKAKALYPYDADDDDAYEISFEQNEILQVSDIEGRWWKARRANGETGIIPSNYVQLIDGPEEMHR

| Binder | SPOT intensity |
| --- | --- |
| B1 | 0 |
| B2 | 0 |
| B3 | 30 |

molecular target: T14, Abp1, P15891; assay: SPOT array; details: median of control spots 935

| Binder | SPOT intensity |
| --- | --- |
| B1 | 0 |
| B2 | 0 |
| B3 | 6 |

molecular target: T15, Lsb4, P32793; assay: SPOT array; details: median of control spots 397

| Binder | SPOT intensity |
| --- | --- |
| B1 | 642 |
| B2 | 813 |
| B3 | 278 |

molecular target: T16, Boi2, P39969; assay: SPOT array; details: median of control spots 1161

| Binder | SPOT intensity |
| --- | --- |
| B1 | 0 |
| B2 | 0 |
| B3 | 1 |

molecular target: T17, Lsb1, P53281; assay: SPOT array; details: median of control spots 388

| Binder | SPOT intensity |
| --- | --- |
| B1 | 461 |
| B2 | 1380 |
| B3 | 174 |

molecular target: T18, Myo5, Q04439; assay: SPOT array; details: median of control spots 471

| Binder | SPOT intensity |
| --- | --- |
| B1 | 0 |
| B2 | 59 |
| B3 | 27 |

molecular target: T19, Bzz1-2, P38822; assay: SPOT array; details: median of control spots 4538

| Binder | SPOT intensity |
| --- | --- |
| B1 | 0 |
| B2 | 0 |
| B3 | 2 |

molecular target: T20, Bbc1, P47068; assay: SPOT array; details: median of control spots 796

| Binder | SPOT intensity |
| --- | --- |
| B1 | 0 |
| B2 | 0 |
| B3 | 0 |

molecular target: T21, Pin3, Q06449; assay: SPOT array; details: median of control spots 2171

| Binder | SPOT intensity |
| --- | --- |
| B1 | 0 |
| B2 | 5 |
| B3 | 4 |
